Test results: the Immune Epitope Database (IEDB)

Experiments:
[1] = biological target: HLA-B*15:01; assay: IEDB peptide-MHC binding, purified MHC/competitive/fluorescence; ≥ and ≤ were set here for values at or beyond the usual limits of such assays; settings: source organism: Sudan ebolavirus
[2] = biological target: HLA-A*02:01; assay: as above; settings: source organism: Sudan ebolavirus
[3] = biological target: HLA-A*01:01; assay: as above; settings: source organism: Sudan ebolavirus
[4] = biological target: HLA-A*03:01; assay: IEDB peptide-MHC binding, purified MHC/direct/fluorescence; filed as Kd, often an IC50 or EC50 that approximates it; ≥ and ≤ were set here for values at or beyond the usual limits of such assays
[5] = biological target: HLA-A*68:02; assay: as above
[6] = biological target: HLA-A*02:16; assay: as above
[7] = biological target: HLA-A*02:11; assay: as above
[8] = biological target: HLA-A*02:03; assay: as above
[9] = biological target: HLA-C*08:02; assay: as above
[10] = biological target: HLA-A*24:03; assay: as above
[11] = biological target: HLA-A*02:12; assay: as above
[12] = biological target: HLA-A*26:01; assay: as above
[13] = biological target: HLA-A*02:19; assay: as above
[14] = biological target: HLA-B*27:03; assay: IEDB peptide-MHC binding, purified MHC/competitive/fluorescence; filed as Kd, often an IC50 or EC50 that approximates it; ≥ and ≤ were set here for values at or beyond the usual limits of such assays; settings: source organism: Sudan ebolavirus
[15] = biological target: HLA-B*51:01; assay: as above
[16] = biological target: HLA-A*02:01; assay: as above
[17] = biological target: HLA-B*46:01; assay: as above; settings: source organism: Sudan ebolavirus
[18] = biological target: HLA-A*69:01; assay: as above; settings: source organism: Sudan ebolavirus
[19] = biological target: HLA-B*57:01; assay: as above; settings: source organism: Sudan ebolavirus
[20] = biological target: HLA-B*39:01; assay: as above; settings: source organism: Sudan ebolavirus
[21] = biological target: HLA-C*03:03; assay: IEDB peptide-MHC binding, purified MHC/direct/fluorescence; filed as Kd, often an IC50 or EC50 that approximates it; ≥ and ≤ were set here for values at or beyond the usual limits of such assays
[22] = biological target: HLA-B*15:42; assay: IEDB peptide-MHC binding, purified MHC/competitive/fluorescence; filed as Kd, often an IC50 or EC50 that approximates it; ≥ and ≤ were set here for values at or beyond the usual limits of such assays
[23] = biological target: HLA-A*03:01; assay: as above; settings: source organism: Salmonella enterica subsp. enterica serovar Typhi
[24] = biological target: HLA-B*15:01; assay: as above; settings: source organism: Salmonella enterica subsp. enterica serovar Typhi
[25] = biological target: HLA-A*68:23; assay: as above; settings: source organism: Salmonella enterica subsp. enterica serovar Typhi
[26] = biological target: HLA-B*45:06; assay: as above
[27] = biological target: HLA-C*04:01; assay: as above
[28] = biological target: HLA-B*83:01; assay: as above; settings: source organism: Salmonella enterica subsp. enterica serovar Typhi
[29] = biological target: HLA-A*31:01; assay: as above; settings: source organism: Salmonella enterica subsp. enterica serovar Typhi
[30] = biological target: HLA-B*15:17; assay: IEDB peptide-MHC binding, purified MHC/direct/fluorescence; filed as Kd, often an IC50 or EC50 that approximates it; ≥ and ≤ were set here for values at or beyond the usual limits of such assays; settings: source organism: Salmonella enterica subsp. enterica serovar Typhimurium str. LT2
[31] = biological target: HLA-B*15:01; assay: as above
[32] = biological target: HLA-B*27:03; assay: as above
[33] = biological target: HLA-B*51:01; assay: as above
[34] = biological target: HLA-A*29:02; assay: as above
[35] = biological target: HLA-A*02:01; assay: as above
[36] = biological target: HLA-B*46:01; assay: as above
[37] = biological target: HLA-A*69:01; assay: as above; settings: source organism: Salmonella enterica subsp. enterica serovar Typhimurium str. LT2
[38] = biological target: HLA-A*23:01; assay: as above; settings: source organism: Salmonella enterica subsp. enterica serovar Typhimurium str. LT2
[39] = biological target: HLA-B*57:01; assay: as above; settings: source organism: Salmonella enterica subsp. enterica serovar Typhimurium str. LT2
[40] = biological target: HLA-B*18:01; assay: as above
[41] = biological target: HLA-B*58:01; assay: IEDB peptide-MHC binding, purified MHC/competitive/fluorescence; filed as Kd, often an IC50 or EC50 that approximates it; ≥ and ≤ were set here for values at or beyond the usual limits of such assays; settings: source organism: Yersinia pestis Nepal516
[42] = biological target: HLA-A*01:01; assay: as above; settings: source organism: Yersinia pestis Nepal516
[43] = biological target: HLA-B*07:02; assay: IEDB peptide-MHC binding, purified MHC/direct/fluorescence; filed as Kd, often an IC50 or EC50 that approximates it; ≥ and ≤ were set here for values at or beyond the usual limits of such assays; settings: source organism: Orthohantavirus hantanense
[44] = biological target: HLA-B*39:01; assay: as above; settings: source organism: Mycobacterium tuberculosis str. Haarlem
[45] = source organism: Sudan ebolavirus
[46] = source organism: Salmonella enterica subsp. enterica serovar Typhi
[47] = source organism: Salmonella enterica subsp. enterica serovar Typhimurium str. LT2
[48] = source organism: Yersinia pestis Nepal516
[49] = source organism: Hantaan virus 76-118
[50] = source organism: Mycobacterium tuberculosis str. Haarlem

Q: How did the IC50 [1] turn out when YTENTSSYY was run?
A: 23.1 µM

Q: What about the IC50 [2] of the same sequence?
A: ≥ 213 µM

Q: What about the IC50 [3] of the same sequence?
A: 0.927 µM

Q: What about the Kd [4, 45] of the same sequence?
A: ≥ 20 µM

Q: And the Kd [5, 45]?
A: ≥ 20 µM

Q: What about the Kd [6, 45] of the same sequence?
A: ≥ 20 µM

Q: What about the Kd [7, 45] of the same sequence?
A: ≥ 20 µM

Q: And the Kd [8, 45]?
A: ≥ 20 µM

Q: What about the Kd [9, 45] of the same sequence?
A: ≥ 20 µM

Q: What about the Kd [10, 45] of the same sequence?
A: ≥ 20 µM

Q: What about the Kd [11, 45] of the same sequence?
A: ≥ 20 µM

Q: What about the Kd ([12]; source organism: Sudan virus - Boniface, Sudan,1976) of the same sequence?
A: 0.007 µM

Q: And the Kd [13, 45]?
A: ≥ 20 µM

Q: And the Kd [14]?
A: ≥ 20 µM

Q: And the Kd [15, 45]?
A: ≥ 20 µM

Q: And the Kd [16, 45]?
A: ≥ 20 µM

Q: And the Kd [17]?
A: ≥ 20 µM

Q: What about the Kd [18] of the same sequence?
A: ≥ 20 µM

Q: And the Kd [19]?
A: ≥ 20 µM

Q: What about the Kd [20] of the same sequence?
A: ≥ 20 µM

Q: For YISPIFIPM, which Kd ([21]; source organism: Rickettsia sibirica 246) is on record?
A: ≤ 0.001 µM

Q: Which results are given for STFDLYVYR?
A: Kd [22, 46]: ≥ 5 µM; Kd [23]: 3.21 µM; Kd [24]: ≥ 20 µM; Kd [25]: 0.0139 µM; Kd [26, 46]: ≥ 5 µM; Kd [27, 46]: ≥ 5 µM; Kd [28]: ≥ 5 µM; Kd [29]: 0.0243 µM

Q: For FKYDSTKPL, which Kd [30] is on record?
A: ≥ 20 µM

Q: And the Kd [4, 47]?
A: ≥ 20 µM

Q: And the Kd [31, 47]?
A: ≥ 20 µM

Q: What about the Kd [32, 47] of the same sequence?
A: ≥ 20 µM

Q: And the Kd [33, 47]?
A: ≥ 20 µM

Q: And the Kd [5, 47]?
A: ≥ 20 µM

Q: What about the Kd [6, 47] of the same sequence?
A: ≥ 20 µM

Q: What about the Kd [34, 47] of the same sequence?
A: ≥ 20 µM

Q: And the Kd [35, 47]?
A: ≥ 20 µM

Q: And the Kd [7, 47]?
A: ≥ 20 µM

Q: And the Kd [8, 47]?
A: ≥ 20 µM

Q: And the Kd [36, 47]?
A: ≥ 20 µM

Q: And the Kd [37]?
A: ≥ 20 µM

Q: What about the Kd [38] of the same sequence?
A: ≥ 20 µM

Q: And the Kd [10, 47]?
A: ≥ 20 µM

Q: What about the Kd [11, 47] of the same sequence?
A: ≥ 20 µM

Q: What about the Kd [12, 47] of the same sequence?
A: ≥ 20 µM

Q: And the Kd [39]?
A: ≥ 20 µM

Q: And the Kd [13, 47]?
A: ≥ 20 µM

Q: And the Kd [40, 47]?
A: ≥ 20 µM

Q: What does the source list for MTSELAALI?
A: Kd [9, 48]: 0.415 µM; Kd [41]: 0.0225 µM; Kd [15, 48]: ≥ 20 µM; Kd [16, 48]: 0.0073 µM; Kd [42]: ≥ 20 µM

Q: What does the source list for TPGRYRTAV?
A: Kd ([33]; source organism: Orthohantavirus hantanense): ≥ 20 µM; Kd [43]: ≤ 0.001 µM; Kd [22, 49]: ≥ 5 µM; Kd [26, 49]: ≥ 5 µM; Kd [27, 49]: ≥ 5 µM

Q: For LAYARGQAM, which Kd ([21]; source organism: Human herpesvirus 4 strain B95-8) is on record?
A: ≤ 0.001 µM

Q: MAVTAAPYI was tested. Which Kd [4, 50] did it give?
A: ≥ 20 µM

Q: What about the Kd [31, 50] of the same sequence?
A: ≥ 20 µM

Q: And the Kd [32, 50]?
A: ≥ 20 µM

Q: And the Kd [33, 50]?
A: 0.103 µM

Q: What about the Kd [6, 50] of the same sequence?
A: ≥ 20 µM

Q: What about the Kd [34, 50] of the same sequence?
A: ≥ 20 µM

Q: And the Kd [35, 50]?
A: ≥ 20 µM

Q: And the Kd [7, 50]?
A: ≥ 20 µM

Q: And the Kd [8, 50]?
A: ≥ 20 µM

Q: What about the Kd [36, 50] of the same sequence?
A: ≥ 20 µM

Q: And the Kd [10, 50]?
A: ≥ 20 µM

Q: What about the Kd [11, 50] of the same sequence?
A: ≥ 20 µM

Q: What about the Kd [12, 50] of the same sequence?
A: ≥ 20 µM

Q: And the Kd [44]?
A: ≥ 20 µM

Q: What about the Kd [13, 50] of the same sequence?
A: ≥ 20 µM

Q: What about the Kd [40, 50] of the same sequence?
A: ≥ 20 µM
